Where only a bound is given, the exact number is not on record here.

For one experiment, the target named is human IgG (human). Nature of the experiment: BLI (Octet), gEgI on Ni-NTA sensor, hIgG in solution.
Turning to “HSV2-gE_P319G V340R_gI (from UniProt P89475 21-416; P06764 21-256) (receptor)”, the Kd (in general, a measure of binding affinity in units of concentration) came out at 197 nM; the Response was 0.287 nm; the koff (usually a measure of how fast the partners let go of each other) is 0.00137 s⁻¹; the kon (in general, a measure of how fast the partners come together) is 6960 M⁻¹ s⁻¹.

“HSV2-gE_H245S P319G_gI (from UniProt P89475 21-416; P06764 21-256) (receptor)” displayed a Kd of 363 nM, a Response of 0.313 nm, a koff of 0.0027 s⁻¹ and a kon of 7440 M⁻¹ s⁻¹.

The substance “HSV2-gE_P319G V340W_gI (from UniProt P89475 21-416; P06764 21-256) (receptor)” came in with a Kd of 385 nM, a Response of 0.106 nm, a koff of 0.00249 s⁻¹ and a kon of 6460 M⁻¹ s⁻¹.

For the substance “HSV2-gE_P317F S338H_gI (from UniProt P89475 21-416; P06764 21-256) (receptor)”, the Kd came out at 339 nM, the Response came out at 0.182 nm, the koff is 0.00167 s⁻¹ and the on-rate (kon) turned out to be 4910 M⁻¹ s⁻¹.

The substance “HSV2-gE_P317S S338L_gI (from UniProt P89475 21-416; P06764 21-256) (receptor)” gave a Kd of 167 nM, a Response of 0.549 nm, a koff of 0.00163 s⁻¹ and a kon of 9770 M⁻¹ s⁻¹.

On to “HSV2-gE_R314P V340M_gI (from UniProt P89475 21-416; P06764 21-256) (receptor)”, for which the Kd stood at 402 nM, the Response amounted to 0.525 nm, the koff is 0.0046 s⁻¹ and the kon came to 11400 M⁻¹ s⁻¹.

On to “HSV2-gE_P318I S338L_gI (from UniProt P89475 21-416; P06764 21-256) (receptor)”, for which the Kd amounted to 152 nM, the Response turned out to be 0.411 nm, the koff was determined as 0.00124 s⁻¹ and the kon was found to be 8130 M⁻¹ s⁻¹.

For another experiment, the target named is Human IgG isotype control (ThermoFischer Scientific, ref 12000C) (human). The experiment in a line: BLI, gEgI on Ni-NTA tips, hIgG in solution. (BLI is a label-free optical method that tracks binding on a fibre tip over time.)
The substance “HSV54 (HSV2- gE_H245A-P319K_gI) (from UniProt P89475 21-416; P06764 21-256) (receptor)” had a Kd of 883 nM, a Relative Affinity (%) compared to control construct HSV34 of 13%, an off-rate constant (koff) of 0.00284 s⁻¹ and a kon of 3370 M⁻¹ s⁻¹.

Turning to “HSV60 (HSV2- gE_N241A_gI) (from UniProt P89475 21-416; P06764 21-256) (receptor)”, the dissociation constant Kd came out at 81.9 nM, the Relative Affinity (%) compared to control construct HSV34 came to 142%, the koff turned out to be 0.000727 s⁻¹ and the kon turned out to be 8990 M⁻¹ s⁻¹.

Substance “HSV59 (HSV2- gE_S338D_gI) (from UniProt P89475 21-416; P06764 21-256) (receptor)” returned a Kd of 890 nM, a Relative Affinity (%) compared to control construct HSV34 of 13%, a koff of 0.00128 s⁻¹ and a kon of 1550 M⁻¹ s⁻¹.

“HSV61 (HSV2- gE_R320D_gI) (from UniProt P89475 21-416; P06764 21-256) (receptor)” gave a Kd of 2400 nM, a Relative Affinity (%) compared to control construct HSV34 of 5%, a koff of 0.0012 s⁻¹ and a kon of 514 M⁻¹ s⁻¹.

Regarding “HSV48 (HSV2- gE_P319G_gI) (from UniProt P89475 21-416; P06764 21-256) (receptor)”, the Kd came out at 700 nM, the Relative Affinity (%) compared to control construct HSV34 came out at 17%, the koff is 0.00556 s⁻¹ and the kon was 8130 M⁻¹ s⁻¹.

Substance “HSV44 (HSV2- gE_H245K_gI) (from UniProt P89475 21-416; P06764 21-256) (receptor)” had a Kd of 673 nM, a Relative Affinity (%) compared to control construct HSV34 of 17%, a koff of 0.00628 s⁻¹ and a kon of 9550 M⁻¹ s⁻¹.

“HSV55 (HSV2- gE_H245A-P319T_gI) (from UniProt P89475 21-416; P06764 21-256) (receptor)” had a Kd of 201 nM, a Relative Affinity (%) compared to control construct HSV34 of 58%, an off-rate constant (koff) of 0.00105 s⁻¹ and a kon of 5330 M⁻¹ s⁻¹.

Regarding “HSV56 (HSV2- gE_A337G_gI) (from UniProt P89475 21-416; P06764 21-256) (receptor)”, the Kd was determined as 98.9 nM, the Relative Affinity (%) compared to control construct HSV34 stood at 117%, the koff was determined as 0.00082 s⁻¹ and the kon turned out to be 8430 M⁻¹ s⁻¹.

The substance “HSV42 (HSV2- gE_346_insert ADIT_gI) (from UniProt P89475 21-416; P06764 21-256) (receptor)” displayed a koff below 1e-07 s⁻¹ and a kon of 5690 M⁻¹ s⁻¹.

“HSV50 (HSV2- gE_P319T_gI) (from UniProt P89475 21-416; P06764 21-256) (receptor)” came in with a Kd of 8.91 nM, a Relative Affinity (%) compared to control construct HSV34 of 1300%, a koff of 8.38e-05 s⁻¹ and a kon of 9460 M⁻¹ s⁻¹.

Regarding “HSV52 (HSV2- gE_H245A-P319R_gI) (from UniProt P89475 21-416; P06764 21-256) (receptor)”, the Kd is 2530 nM, the Relative Affinity (%) compared to control construct HSV34 came to 5%, the koff came to 0.00304 s⁻¹ and the association rate constant (kon) is 1310 M⁻¹ s⁻¹.

“HSV41 (HSV2-gE_338_insert ARAA_gI) (from UniProt P89475 21-416; P06764 21-256) (receptor)”: the Kd turned out to be 1600 nM, the Relative Affinity (%) compared to control construct HSV34 worked out at 7%, the koff was determined as 0.00309 s⁻¹ and the kon was 2010 M⁻¹ s⁻¹.

In turn, “HSV46 (HSV2- gE_P319A_gI) (from UniProt P89475 21-416; P06764 21-256) (receptor)” returned an equilibrium dissociation constant (Kd) of 73.5 nM, a Relative Affinity (%) compared to control construct HSV34 of 158%, a koff of 0.000482 s⁻¹ and a kon of 6630 M⁻¹ s⁻¹.

“HSV53 (HSV2- gE_H245A-P319G_gI) (from UniProt P89475 21-416; P06764 21-256) (receptor)” returned a Kd of 807 nM, a Relative Affinity (%) compared to control construct HSV34 of 14%, an off-rate constant (koff) of 0.00349 s⁻¹ and a kon of 4480 M⁻¹ s⁻¹.

Consider “HSV57 (HSV2- gE_P319D_gI) (from UniProt P89475 21-416; P06764 21-256) (receptor)”, for which the Kd came to 9580 nM, the Relative Affinity (%) compared to control construct HSV34 is 1%, the koff was 0.00403 s⁻¹ and the kon stood at 362 M⁻¹ s⁻¹.

For the substance “HSV63 (HSV2- gE_N241A-P319D_gI) (from UniProt P89475 21-416; P06764 21-256) (receptor)”, the koff was below 1e-07 s⁻¹ and the kon is 3720 M⁻¹ s⁻¹.

Consider “HSV43 (HSV2- gE_H245A_gI) (from UniProt P89475 21-416; P06764 21-256) (receptor)”, for which the koff is below 1e-07 s⁻¹ and the kon turned out to be 9410 M⁻¹ s⁻¹.

As to “HSV40 (HSV2- gE_289_insert ADIGL_gI) (from UniProt P89475 21-416; P06764 21-256) (receptor)”, the dissociation constant Kd is 628 nM, the Relative Affinity (%) compared to control construct HSV34 turned out to be 18%, the off-rate constant (koff) was 0.00519 s⁻¹ and the kon turned out to be 8240 M⁻¹ s⁻¹.

As to “HSV58 (HSV2- gE_P319S_gI) (from UniProt P89475 21-416; P06764 21-256) (receptor)”, the Kd is 116 nM, the Relative Affinity (%) compared to control construct HSV34 was 100%, the koff stood at 0.000604 s⁻¹ and the kon came to 5290 M⁻¹ s⁻¹.

These data come from US20220273789A1.
